± gives the uncertainty stated by the source.
B1: Homeobox protein cut-like 1, residues 941 to 1008; numbered along this chain, P39880 (parent)
chain: QEVDTIELTRQVKEKLAKNGICQRIFGEKVLGLSQGSVSDMLSRPKPWSKLTQKGREPFIRMQLWLNG

Variants of: B1
Experiment: abundance fitness (aPCA) (normalised: wild type 0, dead -1); higher = more abundant; growth selection in yeast, the domain comes from the species named
Details: Homo sapiens

In order of rising abundance fitness:
1. QEVDTIELTRQVKEKLAKNGICQRIFGEKVLGLSQGSVSDMLSRPKPQSKLTQKGREPFIRMQLWLNG [W48Q]  -0.867 ± 0.14
2. QEVDTIELTRQVKEKLAKNGICQRIFGEKVLGLSQGSVSDMLSRPKPWSKLTQKGREPFIRMQLHLNG [W65H]  -0.864 ± 0.28
3. QEVDTIELTRQVKEKLAKNGICQRIFGEKVLGLSQGSVSDMLSRPKPRSKLTQKGREPFIRMQLWLNG [W48R]  -0.729 ± 0.059
4. QEVDTIELTRQVKEKLAKNGICQRIFGEKVLGLSQGSVSDMLSRPKPWSKLTQKGHEPFIRMQLWLNG [R56H]  -0.676 ± 0.15
5. QEVDTIELTRQVKEKLAKNGICQRIFGEKVLGLSQGSVSDMYSRPKPWSKLTQKGREPFIRMQLWLNG [L42Y]  -0.481 ± 0.076
6. QEVDTIELTRQVKEKLAKNGICQRIFGEKVLGLSQGSVSDMLSRPKPWSKLTQKGREPFIRVQLWLNG [M62V]  -0.388 ± 0.06
7. QEVDTIELTRQVKEKLAKNGICQRIFGEKVLGLSQGSVSDMLSRPKPWSKLTQKGREPFGRMQLWLNG [I60G]  -0.383 ± 0.067
8. QEVDTIELTRQVKEKLAKNGICQRIFGEKVLGLSQGSVSKMLSRPKPWSKLTQKGREPFIRMQLWLNG [D40K]  -0.352 ± 0.091
9. QEVFTIELTRQVKEKLAKNGICQRIFGEKVLGLSQGSVSDMLSRPKPWSKLTQKGREPFIRMQLWLNG [D4F]  -0.35 ± 0.072
10. QEVDTIELTRQVKEKLAKNGICVRIFGEKVLGLSQGSVSDMLSRPKPWSKLTQKGREPFIRMQLWLNG [Q23V]  -0.321 ± 0.069
11. QEVDTIELTRDVKEKLAKNGICQRIFGEKVLGLSQGSVSDMLSRPKPWSKLTQKGREPFIRMQLWLNG [Q11D]  -0.298 ± 0.096
12. QEVDTIELTRQVKEKLAKNGICQRIFGEKVLGLSQGSVSDMLSRPKIWSKLTQKGREPFIRMQLWLNG [P47I]  -0.286 ± 0.24
13. QEVDTIELTRQVKEKYAKNGICQRIFGEKVLGLSQGSVSDMLSRPKPWSKLTQKGREPFIRMQLWLNG [L16Y]  -0.278 ± 0.1
14. QEVDTIELTRQVKEKLAKNGICQRIFGEKVLGLSQGSVSDMLSRPKPWSKLTQKGREPFIRTQLWLNG [M62T]  -0.274 ± 0.082
15. QEVDTIELTRQVKEKLAKNGICQRIFGEKVLGLSQGSVSDMLSRNKPWSKLTQKGREPFIRMQLWLNG [P45N]  -0.227 ± 0.097
16. QEVDTIELTHQVKEKLAKNGICQRIFGEKVLGLSQGSVSDMLSRPKPWSKLTQKGREPFIRMQLWLNG [R10H]  -0.226 ± 0.12
17. VEVDTIELTRQVKEKLAKNGICQRIFGEKVLGLSQGSVSDMLSRPKPWSKLTQKGREPFIRMQLWLNG [Q1V]  -0.201 ± 0.088
18. QEVDTIELTRQVKEKLAKNGICQRIFGEKVLGLSQGSVSDMLSRPKPWSKLTQFGREPFIRMQLWLNG [K54F]  -0.199 ± 0.1
19. QEVDTIELTRQVKEKLAKNGICQRIFGEKVLGLSQGSVSDMLSRPKPWSKLTQKGREPFIRMQCWLNG [L64C]  -0.181 ± 0.1
20. QEVDTIELTRQVKEKLAKNGICQRIFGEKVLGLSQGSVSDMISRPKPWSKLTQKGREPFIRMQLWLNG [L42I]  -0.171 ± 0.091
21. QEVDTIELTRQVKEKLAKNGICQRIFGEKVLGLSQGSVSDMLSRPKPWSKLTQKGREPFIRMQLWING [L66I]  -0.166 ± 0.083
22. QEVDTLELTRQVKEKLAKNGICQRIFGEKVLGLSQGSVSDMLSRPKPWSKLTQKGREPFIRMQLWLNG [I6L]  -0.161 ± 0.045
23. QEVDTIELTRQVKEKLAKNGICQRIFGEKVLGLSQGSVSDMLSRPKPWSKLTQKGREPFIRMMLWLNG [Q63M]  -0.124 ± 0.069
24. QEVDTIELTRQVKEKLAKNGICQRIFGEKVLGLSQGSVSTMLSRPKPWSKLTQKGREPFIRMQLWLNG [D40T]  -0.121 ± 0.072
25. QEVDTIELTRQVKEKLAKNGICQRIFGEKVLGLYQGSVSDMLSRPKPWSKLTQKGREPFIRMQLWLNG [S34Y]  -0.108 ± 0.078
26. QEVDTIELTRQVKEKLAKNGICQRIFGEKVLGLSQGSVSDMLSRPKPWSKLTQKGRESFIRMQLWLNG [P58S]  -0.093 ± 0.063
27. QQVDTIELTRQVKEKLAKNGICQRIFGEKVLGLSQGSVSDMLSRPKPWSKLTQKGREPFIRMQLWLNG [E2Q]  -0.093 ± 0.029
28. QEVDTIEYTRQVKEKLAKNGICQRIFGEKVLGLSQGSVSDMLSRPKPWSKLTQKGREPFIRMQLWLNG [L8Y]  -0.089 ± 0.089
29. QEVDTIELTRQVKCKLAKNGICQRIFGEKVLGLSQGSVSDMLSRPKPWSKLTQKGREPFIRMQLWLNG [E14C]  -0.086 ± 0.083
30. QEVDTIELTRQVKEKLAKNGICQRIFGEKVLGLSQGSVSDMLSRPKPWSKLTQKGREPFARMQLWLNG [I60A]  -0.073 ± 0.073
31. QEVDTIELTRQVKEKLAKNGICQRIFGEKVLGLSQGSVSDMLSRPKPWSVLTQKGREPFIRMQLWLNG [K50V]  -0.066 ± 0.053
32. QEVDTIELTRQVKEKLAKNGICQRIFGERVLGLSQGSVSDMLSRPKPWSKLTQKGREPFIRMQLWLNG [K29R]  -0.05 ± 0.049
33. QEVDTIELTRQVKEKLAKNGICQRIFGEKVLGLSMGSVSDMLSRPKPWSKLTQKGREPFIRMQLWLNG [Q35M]  -0.033 ± 0.062
34. QEVDTIELTRQVKEKLAKNGICQRIFGEKVLGLSQGSVSDMLSRPKPWSKLTQKGREPFIRMQLWLAG [N67A]  -0.03 ± 0.085
35. QEVDTIELTRQVKEKLAKNGICQRIFGEKVLGLSQGSVSDMLSRPKPWSKLTQKVREPFIRMQLWLNG [G55V]  -0.01 ± 0.05
36. QEVDTIELTRQVKEKLAKNGICQRIFGEKVLGLSQGSVSDMLSRPKPWSKLTQKGREPFIRFQLWLNG [M62F]  0 ± 0.086
37. QELDTIELTRQVKEKLAKNGICQRIFGEKVLGLSQGSVSDMLSRPKPWSKLTQKGREPFIRMQLWLNG [V3L]  0.008 ± 0.052
38. QEVDTIELTRQVKEKLAKNGICQRIFGEKVLGLSTGSVSDMLSRPKPWSKLTQKGREPFIRMQLWLNG [Q35T]  0.01 ± 0.067
39. QEVDTIELTRQVKEKLAKNGICQRIFGEKVLGLSQGSVSDMLSNPKPWSKLTQKGREPFIRMQLWLNG [R44N]  0.054 ± 0.097
40. QEVDTIELTRQVKEKLAKFGICQRIFGEKVLGLSQGSVSDMLSRPKPWSKLTQKGREPFIRMQLWLNG [N19F]  0.07 ± 0.094

— the Human Domainome abundance scans (Beltran et al. 2025)
